Measured values published in patent US20250361274A1, “PEPTIDE AND PEPTIDE-CONTAINING AGENT” (PEPTIDREAM INC., priority 2022, published 2025).
Numbered stars: 1 amine (or outer) side, 2 acyl side, 3 side chain; on linkers, the order of the positions; unused ones are H or OH. Bridge positions count the residues as written; N and C are the ends. Square brackets hold non-standard residues; d marks the D form. Ends that are not written are not given here. KCOpipzaa = N6-(4-(carboxymethyl)piperazine-1-carbonyl)-L-lysine, O=C(NCCCC[C@H](N[*:1])C(=O)[*:2])N1CCN(CC(=O)[*:3])CC1; Phe(4-guanidino) = N=C(N)Nc1ccc(C[C@H](N)C(=O)O)cc1; 3Pal(6-Ph) = N[C@@H](Cc1ccc(-c2ccccc2)nc1)C(=O)O; Phe(4-COOH) = N[C@@H](Cc1ccc(C(=O)O)cc1)C(=O)O; Bip = N[C@@H](Cc1ccc(-c2ccccc2)cc1)C(=O)O; 3Pal(6-NH2) = Nc1ccc(C[C@H](N)C(=O)O)cn1; Phe(4-F) = N[C@@H](Cc1ccc(F)cc1)C(=O)O; Ala(4-THP) = N[C@@H](CC1CCOCC1)C(=O)O; hTyr = N[C@@H](CCc1ccc(O)cc1)C(=O)O; hCit = NC(=O)NCCCC[C@H](N)C(=O)O; 4Pal = N[C@@H](Cc1ccncc1)C(=O)O

How the values were obtained:
BMP4 = molecular target: T1, BMP4 (Homo sapiens, UniProt P12644); experiment: BMP4 signal transduction inhibitory activity: SMAD1 phosphorylation by BMP4 stimulus, AlphaLISA SureFire, A549 cells; format: cell-based; settings: for aLISA BMP4: inhibition of SMAD1 phosphorylation by BMP4 stimulus, A549 cells, peptides of Synthesis 1, classes D-F, ND; for aLIZA BMP4 (0.2 nM) % Inh: SMAD1 phosphorylation by BMP4 stimulus, peptide conc. in assay 0.02, 0.2, 2 nM, class symbols
T1 sequence (P12644 293-408): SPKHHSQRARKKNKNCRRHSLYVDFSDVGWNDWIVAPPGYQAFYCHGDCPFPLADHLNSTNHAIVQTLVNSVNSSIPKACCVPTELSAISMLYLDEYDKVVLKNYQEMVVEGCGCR

BMP7 = molecular target: T2, BMP7 (Homo sapiens, UniProt P18075); experiment: BMP7 signal transduction inhibitory activity: SMAD1 phosphorylation by BMP7 stimulus, A549 cells; format: cell-based; settings: for aLISA BMP7: inhibition of SMAD1 phosphorylation by BMP7 stimulus, A549 cells, peptides of Synthesis 1, classes E, F, ND; for aLIZA BMP7 (10 nM) % Inh: SMAD1 phosphorylation by BMP7 stimulus, peptide conc. in assay 10, 100, 1000 nM, class symbols
T2 sequence (P18075 293-431): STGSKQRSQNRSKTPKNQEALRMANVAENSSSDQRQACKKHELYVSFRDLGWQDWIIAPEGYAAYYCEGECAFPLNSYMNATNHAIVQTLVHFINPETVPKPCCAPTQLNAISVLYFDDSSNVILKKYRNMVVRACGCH
Outline: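 Inhibition is read as reduced BMP7-driven SMAD1 phosphorylation in human A549 cells, with the BMP7 stimulus at 10 nM. Three-point peptide concentrations spanned 1–1,000 nM depending on the peptide series. Some peptides received eight-point, 1/3-ratio titrations from 100 nM or 1,000 nM, alongside a Noggin control.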

Substance	aLISA BMP4 (BMP4)	aLISA BMP7 (BMP7)	aLIZA BMP4 (0.2 nM) % Inh (BMP4)	aLIZA BMP7 (10 nM) % Inh (BMP7)
134 ({CH2CO}-ERVYVD[Phe(4-guanidino)][Bip]PYV[Bip]Y[Phe(4-COOH)][Phe(4-COOH)]SCG-NH2; thioether N-17; not fully specified) [compound 134]	E (showed less than 50% of inhibitory activity in 0.2 nM-addition zone and showed 50% or more of inhibitory activity in 2 nM-addition zone)	E (showed 50% or more of inhibitory activity in a zone to which the peptide was added in an amount of 10 nM)	–	–
135 ({CH2CO}-ERVYVD[hCit][Bip]PYV[Bip]Y[Phe(4-COOH)][Phe(4-COOH)]SCG-NH2; thioether N-17; not fully specified) [compound 135]	E (showed less than 50% of inhibitory activity in 0.2 nM-addition zone and showed 50% or more of inhibitory activity in 2 nM-addition zone)	E (showed 50% or more of inhibitory activity in a zone to which the peptide was added in an amount of 10 nM)	–	–
137 ({CH2CO}-ERVYVDR[Bip][hCit]YV[Bip]Y[Phe(4-COOH)][Phe(4-COOH)]SCG-NH2; thioether N-17; not fully specified) [compound 137]	D (showed 50% or more of inhibitory activity in 0.2 nM-addition zone)	E (showed 50% or more of inhibitory activity in a zone to which the peptide was added in an amount of 10 nM)	–	–
143 ({CH2CO}-ERVYVDR[Bip]PYY[Bip]Y[Phe(4-COOH)][Phe(4-COOH)]SCG-NH2; thioether N-17; not fully specified) [compound 143]	D (showed 50% or more of inhibitory activity in 0.2 nM-addition zone)	E (showed 50% or more of inhibitory activity in a zone to which the peptide was added in an amount of 10 nM)	–	–
145 ({CH2CO}-ERVYVDR[Bip]PY[hCit][Bip]Y[Phe(4-COOH)][Phe(4-COOH)]SCG-NH2; thioether N-17; not fully specified) [compound 145]	D (showed 50% or more of inhibitory activity in 0.2 nM-addition zone)	E (showed 50% or more of inhibitory activity in a zone to which the peptide was added in an amount of 10 nM)	–	–
146 ({CH2CO}-ERVYVDR[Bip]PY[Ala(4-THP)][Bip]Y[Phe(4-COOH)][Phe(4-COOH)]SCG-NH2; thioether N-17; not fully specified) [compound 146]	D (showed 50% or more of inhibitory activity in 0.2 nM-addition zone)	E (showed 50% or more of inhibitory activity in a zone to which the peptide was added in an amount of 10 nM)	–	–
150 ({CH2CO}-ERVYVDR[Bip]PYV[Bip]Y[Phe(4-COOH)][3Pal(6-NH2)]SCG-NH2; thioether N-17; not fully specified) [compound 150]	E (showed less than 50% of inhibitory activity in 0.2 nM-addition zone and showed 50% or more of inhibitory activity in 2 nM-addition zone)	E (showed 50% or more of inhibitory activity in a zone to which the peptide was added in an amount of 10 nM)	–	–
243 (ERVYVDR[3Pal(6-Ph)]SYV[Bip]Y[Phe(4-COOH)][Phe(4-COOH)]SCG-NH2) [compound 243]	–	–	C (showed less than 30% of inhibitory activity in 0.2 nM-addition zone and showed 30% or more of inhibitory activity in 2 nM-addition zone)	E (showed less than 30% of inhibitory activity in 100 nM-addition zone and showed 30% or more of inhibitory activity in 1,000 nM-addition zone)
244 (ARVYVDR[3Pal(6-Ph)]SYV[Bip]Y[Phe(4-COOH)][Phe(4-COOH)]SCG-NH2; not fully specified) [compound 244]	–	–	C (showed less than 30% of inhibitory activity in 0.2 nM-addition zone and showed 30% or more of inhibitory activity in 2 nM-addition zone)	ND (the inhibitory activity was less than 30% at the maximum concentration evaluated)
245 (LRVYVDR[3Pal(6-Ph)]SYV[Bip]Y[Phe(4-COOH)][Phe(4-COOH)]SCG) [compound 245]	–	–	C (showed less than 30% of inhibitory activity in 0.2 nM-addition zone and showed 30% or more of inhibitory activity in 2 nM-addition zone)	ND (the inhibitory activity was less than 30% at the maximum concentration evaluated)
246 (ERV[4Pal]VDR[3Pal(6-Ph)]SYV[Bip]Y[Phe(4-COOH)][Phe(4-COOH)]SCG-NH2; not fully specified) [compound 246]	–	–	C (showed less than 30% of inhibitory activity in 0.2 nM-addition zone and showed 30% or more of inhibitory activity in 2 nM-addition zone)	E (showed less than 30% of inhibitory activity in 100 nM-addition zone and showed 30% or more of inhibitory activity in 1,000 nM-addition zone)
247 (ERV[Phe(4-F)]VDR[3Pal(6-Ph)]SYV[Bip]Y[Phe(4-COOH)][Phe(4-COOH)]SCG-NH2) [compound 247]	–	–	C (showed less than 30% of inhibitory activity in 0.2 nM-addition zone and showed 30% or more of inhibitory activity in 2 nM-addition zone)	E (showed less than 30% of inhibitory activity in 100 nM-addition zone and showed 30% or more of inhibitory activity in 1,000 nM-addition zone)
248 (E[KCOpipzaa]VYVDR[3Pal(6-Ph)]SYV[Bip]Y[Phe(4-COOH)][Phe(4-COOH)]SCG-NH2) [compound 248]	–	–	C (showed less than 30% of inhibitory activity in 0.2 nM-addition zone and showed 30% or more of inhibitory activity in 2 nM-addition zone)	ND (the inhibitory activity was less than 30% at the maximum concentration evaluated)
249 (ERVHVDR[3Pal(6-Ph)]SYV[Bip]Y[Phe(4-COOH)][Phe(4-COOH)]SCG-NH2; not fully specified) [compound 249]	–	–	C (showed less than 30% of inhibitory activity in 0.2 nM-addition zone and showed 30% or more of inhibitory activity in 2 nM-addition zone)	E (showed less than 30% of inhibitory activity in 100 nM-addition zone and showed 30% or more of inhibitory activity in 1,000 nM-addition zone)
250 (ERVYVDR[3Pal(6-Ph)]HYV[Bip]Y[Phe(4-COOH)][Phe(4-COOH)]SCG-NH2; not fully specified) [compound 250]	–	–	C (showed less than 30% of inhibitory activity in 0.2 nM-addition zone and showed 30% or more of inhibitory activity in 2 nM-addition zone)	E (showed less than 30% of inhibitory activity in 100 nM-addition zone and showed 30% or more of inhibitory activity in 1,000 nM-addition zone)
251 (ERVYVDR[3Pal(6-Ph)]S[hTyr]V[Bip]Y[Phe(4-COOH)][Phe(4-COOH)]SCG-NH2) [compound 251]	–	–	C (showed less than 30% of inhibitory activity in 0.2 nM-addition zone and showed 30% or more of inhibitory activity in 2 nM-addition zone)	ND (the inhibitory activity was less than 30% at the maximum concentration evaluated)
252 (LRVYVDR[3Pal(6-Ph)]SYV[Bip][4Pal][Phe(4-COOH)][Phe(4-COOH)]SCG-NH2; not fully specified) [compound 252]	–	–	C (showed less than 30% of inhibitory activity in 0.2 nM-addition zone and showed 30% or more of inhibitory activity in 2 nM-addition zone)	ND (the inhibitory activity was less than 30% at the maximum concentration evaluated)
253 (ERVYVSR[3Pal(6-Ph)]SYV[Bip][4Pal][Phe(4-COOH)][Phe(4-COOH)]SCG-NH2; not fully specified) [compound 253]	–	–	C (showed less than 30% of inhibitory activity in 0.2 nM-addition zone and showed 30% or more of inhibitory activity in 2 nM-addition zone)	ND (the inhibitory activity was less than 30% at the maximum concentration evaluated)
254 (ERVYVSR[3Pal(6-Ph)]S[hTyr]V[Bip]Y[Phe(4-COOH)][Phe(4-COOH)]SCG-NH2; not fully specified) [compound 254]	–	–	C (showed less than 30% of inhibitory activity in 0.2 nM-addition zone and showed 30% or more of inhibitory activity in 2 nM-addition zone)	ND (the inhibitory activity was less than 30% at the maximum concentration evaluated)
256 (ERV[Phe(4-F)]VSR[3Pal(6-Ph)]SYV[Bip][4Pal][Phe(4-COOH)][Phe(4-COOH)]SCG-NH2; not fully specified) [compound 256]	–	–	C (showed less than 30% of inhibitory activity in 0.2 nM-addition zone and showed 30% or more of inhibitory activity in 2 nM-addition zone)	ND (the inhibitory activity was less than 30% at the maximum concentration evaluated)
257 (TRVYVDR[3Pal(6-Ph)]SYV[Bip]Y[Phe(4-COOH)][Phe(4-COOH)]SCG-NH2; not fully specified) [compound 257]	–	–	C (showed less than 30% of inhibitory activity in 0.2 nM-addition zone and showed 30% or more of inhibitory activity in 2 nM-addition zone)	E (showed less than 30% of inhibitory activity in 100 nM-addition zone and showed 30% or more of inhibitory activity in 1,000 nM-addition zone)
263 (ERVYV[KCOpipzaa]R[3Pal(6-Ph)]SYV[Bip]Y[Phe(4-COOH)][Phe(4-COOH)]SCG-NH2; not fully specified) [compound 263]	–	–	C (showed less than 30% of inhibitory activity in 0.2 nM-addition zone and showed 30% or more of inhibitory activity in 2 nM-addition zone)	E (showed less than 30% of inhibitory activity in 100 nM-addition zone and showed 30% or more of inhibitory activity in 1,000 nM-addition zone)
